Results from US20200282100A1, “Hemostatic Dressings with Self-Assembling Peptide Hydrogels” (3-D Matrix, Ltd., priority 2016, published 2020).

Experiment: Congo Red assay of gel formation of peptide solutions in PBS buffer (pH 7.4) with a hemostatic porous dressing
Type: physicochemical
Details: PBS pH 7.4, compared with pure RADA16 2.5%
Procedure: A Congo Red assay was performed to assess gel formation of peptide solutions in a PBS buffer solution (pH 7.4) when used with a hemostatic porous dressing. RADA16 2.5% (PuraMatrix®) was plated on a glass slide and also on a hemostatic porous dressing on a glass slide. PuraMatrix® was spread on the surface of the hemostatic porous dressing using a stick. After 30 seconds, 1% Congo Red solution was added around and on top of the gel aliquots and then the excess Congo Red solution was wiped off prior to examination. RADA16 2.5% was also plated on an absorbable gelatin sponge (Surgifoam®, Ethicon) and on an absorbable oxidized regenerated cellulose woven dressing (Surgicel®, Ethicon). Visualization of gel formation determined the success or failure of gelation. […] Specifically, (1) and (2) show pure RADA16 2.5% (PuraMatrix®). In (3), (4), and (5), RADA16 2.5% is shown with absorbable gelatin sponge (Surgifoam®, Ethicon). In (6), (7), and (8), RADA16 2.5% is shown with absorbable oxidized regenerated cellulose woven dressing (Surgicel®, Ethicon).
A Congo Red assay was performed to assess gel formation of peptide solutions in a PBS buffer solution (pH 7.4) when used with a hemostatic porous dressing.
IEIK13 1.3% (pH 3.0) was plated on a glass slide and on a hemostatic porous dressing on a glass slide. […] Visualization of gel formation determined the success or failure of gelation. […]

RADARADARADARADA [RADA16 2.5%]
gel formation (visualization) (on absorbable gelatin sponge (Surgifoam, Ethicon)): gelled | gel formation (visualization) (on absorbable oxidized regenerated cellulose woven dressing (Surgicel, Ethicon)): gelled
